Substitutions are numbered along the chain they refer to.
B1: ABU-208 (antibody, V domains shown)
VH: QVQLVESGGGVVQPGRSLRLSCVASGFTFSNYDMHWVRQAPGKGLEWVTVISSDGNNRRYADSVKGRFTISRDNSKNMLYLQMNSLKAEDTAVYYCARDEVIAVATGEGMDVWGQGTTVTVSP
VL: EIVMTQSPAILSVSPGERATLSCRASQSVTRNLAWYQQKPGQAPRLLIYGASTRATNIPARFSGSGFGTEFTLIISSLQSEDFAVYYCQQYSNWPLYTFGQGTKLEIK
B2: ABU-190 (antibody, V domains shown)
VH: EVQLVESGGGLIQPGGSLRLSCAASGITVSSNYMSWVRQAPGKGLEWVSVIYSGGSTDYADSVKGRFTISRDKSKNTLYLQMNSLRAEDTAVYYCARDLGEAGGMDVWGQGTTVTVSS
VL: AIQLTQSPSSLSASVGDRVTITCRASQGISSYLAWYQQKPGKAPKLLIYAASTLQSGVPSRFSGSGSGTDFTLTISSLQPEDFATYYCQQLNSYPPAFGGGTKVEIK
B3: ABU-322 (antibody, V domains shown)
VH: EVQLVESGGGLIQPGGSLRLSCAASGVIVSRNYMNWVRQAPGKGLEWVSVIYSGGSTFYADSVKGRFTISRDNSKNTLYLQMNSLRAEDTAVYYCARELRGAFDIWGQGTMVTVSS
VL: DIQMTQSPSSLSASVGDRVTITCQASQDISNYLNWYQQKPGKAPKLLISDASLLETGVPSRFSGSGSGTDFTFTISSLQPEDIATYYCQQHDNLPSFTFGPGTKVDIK
B4: ABU-382 (antibody, V domains shown)
VH: B3 VH with V27I, I28T, R31S, N35S, A60S, L99R, R100G, A102R, I105Y, M111L
VL: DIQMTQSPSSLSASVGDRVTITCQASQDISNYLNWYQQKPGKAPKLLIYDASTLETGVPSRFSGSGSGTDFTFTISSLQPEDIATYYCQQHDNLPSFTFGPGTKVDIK
B5: ABU-308 (antibody, V domains shown)
VH: QVQLVQSGAEVKKPGSSVKVSCKASGGTFSSYAISWVRQAPGQGLEWMGGIIPIFGTANYAHKFQGRVTITADESTSTAYMELSSLRSEDTAVYYCATRRGYSGYGAAYYFDYWGQGTLVTVSS
VL: QSVLTQPPSVSGAPGQRVTISCTGSSSNIGAGYDVHWYQQLPGTAPKLLIYGNSNRPSGVPDRFSGSKSGTSASLAITGLQAEDEADYYCQSYDSSLSGSLFGGGTKLTVL
B6: ABU-344 (antibody, V domains shown)
VH: QVQLVQSGAEVKKPGSSVKVSCKASGGTFSSYTISWVRQAPGQGLEWMGRIIPILGIANYAQKFQGRVTITADKSTSTAYMELSSLRSEDTAVYYCARERGYSGSGSLYYFDYWGQGTLVTVSS
VL: B5 VL with S26N, G52V, S54T, D87H, L101V
B7: ABU-296 (antibody, V domains shown)
VH: EVQLLESGGGVVQPGGSLRLSCAASGFTFTTYAMNWVRQAPGRGLEWVSAISDSGGSAYYADSVKGRFTISRDNSKNTLYLQMNSLRAEDTAVYYCAKTRGRGLYDYVWGSKDYWGQGTLVTVSS
VL: not shown
B8: ABU-297 (antibody, V domains shown)
VH: B7 VH with T28A, S54G
VL: not shown
B9: ABU-290 (antibody, V domains shown)
VH: QVQLVQSGAEVKKPGASVKVSCKASGFTFGRHGITWVRQAPGQGLEWMGWISTYSGNTNYAQNLQGRVTMTTDTSTNTAYMELRSLFFDDTAVYYCAKAVSGWPIYFDAWGQGTLVTVSS
VL: EIVMTQSPATLSVSPGERVTLSCRASQSINRNLAWYQQKPGQAPRLLVYDASTRAPGIPTRVSGSGSGTDFTLTISSLQSEDFAVYYCQQYNNWPPITFGQGTRLEIQ
B10: ABU-291 (antibody, V domains shown)
VH: B9 VH with V2I, K19R, H32Y, A40V, V93M
VL: B9 VL with I29V, S63R
B11: ABU-174 (antibody, V domains shown)
VH: QVQLQQWGAGLLKPSETLSLTCAVYGGSFSDYYWNWIRRPPGKGLEWIGEITHSGSTNYNPSLKSRVTISVDTSKNQFSLKLSSVTAADTAVYYCARGQGYGRVLLWFGEWGQGTLVTVSS
VL: EIVLTQSPATLSLSPGERATLSCRASQSVSTYLAWYQQKPGQAPRLLIYDASNRATGIPARFSGSGSGTDFTLTISSLEPEDFAVYYCQQRSNWITFGQGTRLEIK
B12: ABU-257 (antibody, V domains shown)
VH: EVQLVESGGGLIQPGGSLRLSCAASGFTVSSNYMSWVRQAPGKGLEWVSVIYSGGSTYYADSVKGRFTISRDNSKNTLYLQMNSLRAEDTAVYYCARVTRAGAAGDGGAFDIWGQGTMVTVSS
VL: QSALTQPASVSGSPGQSITISCTGTSSDVGSYNLVSWYQQHPGKAPKLMIYEVSKRPSGVSNRFSGSKSGNTASLTISGLQAEDEADYYCCSYAGSSLWVFGGGTKLTVL
B13: ABU-383 (antibody, V domains shown)
VH: EVQLVESGGGLVQPGGSLRLSCAASGFTVSSNYMSWVRQAPGKGLEWVSLIYSGGSTYYADSVKGRFTISRDNSKNTLYLQMNSLRAEDTAVYYCARDRPAAAIRFGQGTLVTVSS
VL: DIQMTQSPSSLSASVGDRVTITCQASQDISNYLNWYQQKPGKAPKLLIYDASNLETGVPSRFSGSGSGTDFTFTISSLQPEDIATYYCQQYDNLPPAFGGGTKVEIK
B14: ABU-385 (antibody, V domains shown)
VH: EVQLVESGGGLVQPGGSLRLSCAASGFTVSSNYMSWVRQAPGKGLEWVSVIYSGGSTYYADSVKGRFTISRDNSKNTLYLQMNSLRAEDTAVYYCARELSYSSSSGVGPKYWGQGTLVTVSS
VL: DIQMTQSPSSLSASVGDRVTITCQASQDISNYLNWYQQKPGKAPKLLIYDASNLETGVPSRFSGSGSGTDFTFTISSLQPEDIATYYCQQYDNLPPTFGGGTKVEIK
B15: ABU-384 (antibody, V domains shown)
VH: EVQLVESGGGLVQPGGSLRLSCAASGFTVSSNYMSWVRQAPGKGLEWVSIIYSGGSTYYADSVKGRFTISRDNSKNTLYLQMNSLRAEDTAVYYCARDYAGRVWGQGTLVTVSS
VL: DIQMTQSPSSLSASVGDRVTITCQASQDIRSYLNWYQQKPGKAPKLLIYDASNLETGVASRFSGSGSGTDFTFTISSLQPEDIATYYCQQYDNLPQTFGQGTKLEIK
B16: ABU-343 (antibody, V domains shown)
VH: QVQLVQSGAEVKKPGASVKVSCKASGYTFTNYYMHWMRQAPGQGLEWMGIINPSGGSTSYAHQFQGRVTMTRDTSTSTVYMEMSSLRSEDTAVYFCVVGIGYCSSPSCPPLRWFDYWGQGTLVTVSS
VL: B2 VL with Y32A, L46V, A50D, T53G, S65G, L91F, S93D, P96L, A97T
B17: ABU-339 (antibody, V domains shown)
VH: EMQLLESGGGLVQPGGSLRLSCAASGFTFFSYALSWVRQAPGKGLEWVSGISGISDSGGNTYYADSVKGRFTISRDNSQNMLYLQMNSLRVEDTAVYYCAKERRPVLRYFDWLPIEAPDYWGPGTLVTVSS
VL: B2 VL with Y32S, A50S, S76T, P96L, A97T
B18: ABU-390 (antibody, V domains shown)
VH: EVQLVESGGGLVQPGGSLRLSCAASGFTFSSYDMHWVRQATGKGLEWVSVIGTAGDTYYPGSVKGRFTISRENAKNSLYLQMNSLRAGDTAVYYCARDRDNGSGSYLGWAFDIWGQGTMVTVSS
VL: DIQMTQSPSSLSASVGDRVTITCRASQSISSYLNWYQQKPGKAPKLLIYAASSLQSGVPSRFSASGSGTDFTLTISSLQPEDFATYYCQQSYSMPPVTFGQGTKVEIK
B19: ABU-346 (antibody, V domains shown)
VH: EAQLLESGGGLVQPGGSLRLSCAVSGFTVSSYDMSWVRQAPGKRLEWVSFISARGSVTYYADSVRGRFTISRDNFKNTLYVEMNNLRVEDTAVYYCAKGHWSTWGQGTLVTVSS
VL: DVVLTQSPLSLPVTLGQPASISCRSSHSLVYSDGYTHLHWIQERPGQSPRRLIYSVSHRDSGVPDRFSGSGSATDFTLQISRVEAEDVGVYYCMQGSHWPWTFGQGTKVEIK
B20: ABU-329 (antibody, V domains shown)
VH: EVQLVESGGGLVQPGGSLRLSCAASGFTFSSYWMHWVRQAPGKGLVWVSRIKSDGSSTSYADSVKGRFTISRDNAKNTLYLQMNSLRAEDTAVYYCAGKKIYYGSSFDPWGQGTLVTVSS
VL: NFMLTQPHSVSESPGKTVTISCTRSSGSIASNYVQWYQQRPGSAPTTVIYEDNQRPSGVPDRFSGSIDSSSNSASLTISGLKTEDEADYYCQSYDSSNQVFGGGTKLTVL
B21: ABU-325 (antibody, V domains shown)
VH: EVQLVESGGGLIQPGGSLRLSCAASGFTVSSNYMSWVRQAPGKGLEWVSVIYSGGSTYYADSVKGRFTISRDNSKNTLYLQMNSLRAEDTAVYYCARDRRVGSPYYYYYMDVWGKGTTVTVSS
VL: QTVVTQEPSLTVSPGGTVTLTCASSTGAVTSGYYPNWFQQKPGQAPRALIYSTSNKHSWTPARFSGSLLGGKAALTLSGVQPEDEAEYYCLLYYGGAPVFGGGTKLTVL
B22: ABU-330 (antibody, V domains shown)
VH: QVQLQESGPGLVKPSQTLSLTCTVSGGSISSGGYYWSWIRQHPGKGLEWIGYIYYSGSTYYNPSLKSRVTISVDTSKNQFSLKLSSVTAADTAVYYCARGGSGSGWYGGRFDYWGQGTLVTVSS
VL: EIVLTQSPATLSLSPGERATLSCRASQSVSSYLAWYQQKPGQAPRLLIYDASNRATGIPARFSGSGSGTDFTLTISSLEPEDFAVYYCQQRSNWLFTFGPGTKVDIK
B23: ABU-337 (antibody, V domains shown)
VH: QVQLVESGGGVVQPGRSLRLSCAASGFTFSTSAMHWVRQAPGKGLEWVAGISYDGSNEHLDSVKGRFTISRDNSKNTLYLQMSSLRPEDTAVYYCARCPFWNYGHCYLDNWGQGTLVTVSS
VL: B22 VL with Y49F, S92N, N93K, L95P, F96G, P100Q, D105E
B24: ABU-348 (antibody, V domains shown)
VH: QVQLVESGGGVVQPGKSLRLSCAASGFTFSSYGMHWVRQAPGKGLEWVAVISNYGSNKYHADSVKGRITISRDNSKNTLYLQMNSLRAEDTAVYYCAKGGYYDILTGYFPFDYWGQGTLVTVSS
VL: QSALTQPRSVSGSPGQSVTISCTGTSSDVGGYNYVSWYQQYPGKAPKLMIYEVSKRPSGVPDRFSGSKSGNTASLTISGLQAEDEADYYCCSYAGSYTWVFGTGTKVTVL

molecular target: S protein of the novel coronavirus SARS-CoV-2 (SARS-CoV-2, UniProt P0DTC2 14-1273); experiment: cell-based or functional assay

Binder | IC50 for neutralizing SARS-CoV-2 pseudovirus (Huh-7 cells, luciferase) [µg/mL]
B1 | < 0.5
B2 | < 0.1
B3 | < 0.1
B4 | < 0.1
B5 | < 0.5
B6 | < 1
B7 | < 0.1
B8 | < 0.1
B9 | < 0.1
B10 | < 0.5
B11 | < 0.1
B12 | < 0.5

molecular target: biotin-labeled SARS-COV-2 RBD domain (SARS-CoV-2, UniProt P0DTC2 319-541); experiment: SPR, Biacore T200, biotin-RBD on SA chip, antibody as analyte

Binder | Kd [nM]
B13 | < 20
B14 | < 20
B15 | < 20
B1 | < 1
B16 | < 20
B17 | < 20
B4 | < 10
B18 | < 10
B19 | < 10
B7 | < 1
B8 | < 1
B20 | < 10
B21 | < 10
B22 | < 10
B23 | < 20
B24 | < 10
B12 | < 10
